Measured values as given in article PMC10901363 (Science Advances, 2024).
Where no end group is shown, it is not given here. [ ]: non-standard residue; d: D form. pY = N[C@@H](Cc1ccc(OP(=O)(O)O)cc1)C(=O)O

Legend:
[1] = substrate: Cc1cc(=O)oc2c(F)c(OP(=O)(O)O)c(F)cc12; experiment: fluorescent phosphatase assay, Michaelis-Menten; assay type: biochemical, Homo sapiens; conditions: 50 mM Hepes pH 7.0, 150 mM NaCl, 1 mM EDTA, 2 mM DTT, RT, 0.2 nM enzyme
PTPN21 PTP C1108S-EGFP [2] = target: T1, PTPN21 PTP C1108S-EGFP (UniProt Q16825 872-1174, C1108S); experiment: MST
T1 sequence: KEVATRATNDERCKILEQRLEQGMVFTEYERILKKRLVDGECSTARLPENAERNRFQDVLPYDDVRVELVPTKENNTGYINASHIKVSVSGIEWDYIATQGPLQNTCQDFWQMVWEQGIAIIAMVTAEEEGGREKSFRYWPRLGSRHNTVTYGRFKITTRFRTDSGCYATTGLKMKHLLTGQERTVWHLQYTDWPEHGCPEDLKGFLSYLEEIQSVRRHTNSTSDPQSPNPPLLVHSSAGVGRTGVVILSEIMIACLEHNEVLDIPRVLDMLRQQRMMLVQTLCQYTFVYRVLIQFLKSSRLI

[3] = target: T2, PTPN21 PTP E1067D C1108S-EGFP (UniProt Q16825 872-1174, E1067D | C1108S); experiment: MST
T2 sequence: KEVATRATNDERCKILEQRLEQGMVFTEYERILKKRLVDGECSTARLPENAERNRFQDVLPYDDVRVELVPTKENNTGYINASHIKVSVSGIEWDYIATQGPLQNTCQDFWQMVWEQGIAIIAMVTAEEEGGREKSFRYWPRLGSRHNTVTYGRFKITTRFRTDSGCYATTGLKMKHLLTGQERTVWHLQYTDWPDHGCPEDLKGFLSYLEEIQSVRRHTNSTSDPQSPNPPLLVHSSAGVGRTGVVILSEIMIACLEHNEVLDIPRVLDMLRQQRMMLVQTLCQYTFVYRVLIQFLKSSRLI

PTPN21 PTP R1114Q [4] = target: T3, PTPN21 PTP R1114Q (UniProt Q16825 872-1174, R1114Q); experiment: MST
T3 sequence: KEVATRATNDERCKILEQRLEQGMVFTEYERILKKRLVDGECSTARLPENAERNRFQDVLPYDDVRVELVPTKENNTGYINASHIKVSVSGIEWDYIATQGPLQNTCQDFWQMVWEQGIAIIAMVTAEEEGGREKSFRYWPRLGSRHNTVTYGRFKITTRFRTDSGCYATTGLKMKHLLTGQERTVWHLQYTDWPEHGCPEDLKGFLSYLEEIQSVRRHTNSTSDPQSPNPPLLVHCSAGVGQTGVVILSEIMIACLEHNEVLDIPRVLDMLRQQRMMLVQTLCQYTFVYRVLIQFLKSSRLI

PTPN21 PTP C1108S [5] = target: T4, PTPN21 PTP C1108S (UniProt Q16825 872-1174, C1108S); experiment: crystal structure; PTP C1108S with twofold molar excess of Src pY530 peptide, hanging drop, 4°C; conditions: both partners purified
T4 construct: also called PTP^PTPN21 C1108S; source: E. coli Rosetta (DE3), purified (as the wild type); not shown: His-sumo, N-terminal, cleaved
T4 sequence (looked up): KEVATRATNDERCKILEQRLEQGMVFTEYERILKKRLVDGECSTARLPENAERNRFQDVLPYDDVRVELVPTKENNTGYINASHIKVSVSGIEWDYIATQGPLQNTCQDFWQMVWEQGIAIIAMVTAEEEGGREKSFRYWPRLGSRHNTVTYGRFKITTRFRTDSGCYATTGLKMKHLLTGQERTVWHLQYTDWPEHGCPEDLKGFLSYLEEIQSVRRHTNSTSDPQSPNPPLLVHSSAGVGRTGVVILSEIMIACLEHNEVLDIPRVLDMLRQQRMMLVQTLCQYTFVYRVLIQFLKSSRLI

PTPN21 PTP C1108S-EGFP [6] = target: T5, PTPN21 PTP C1108S-EGFP (UniProt Q16825 872-1174, C1108S); experiment: MST; fluorescent PTP mutant-EGFP (80 nM) mixed with an increasing amount of Src pY530 peptide; 20 mM Hepes pH 7.0, 150 mM NaCl, 0.3 mM TCEP, 1.5 mM BSA; conditions: both partners purified
T5 construct: also called PTP^PTPN21 C1108S; source: E. coli Rosetta (DE3), purified (as the wild type); not shown: His-sumo, N-terminal, cleaved; EGFP, C-terminal, kept
T5 sequence (looked up): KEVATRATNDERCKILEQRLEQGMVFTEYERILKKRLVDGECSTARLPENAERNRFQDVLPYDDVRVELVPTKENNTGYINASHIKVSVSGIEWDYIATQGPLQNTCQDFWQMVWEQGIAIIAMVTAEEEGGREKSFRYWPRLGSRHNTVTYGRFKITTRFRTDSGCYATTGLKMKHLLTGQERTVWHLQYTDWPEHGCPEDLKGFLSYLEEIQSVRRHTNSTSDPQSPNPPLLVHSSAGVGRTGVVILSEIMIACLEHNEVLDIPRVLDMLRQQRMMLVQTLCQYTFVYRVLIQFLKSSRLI

[7] = target: T6, PTPN21 PTP E1067D C1108S-EGFP (UniProt Q16825 872-1174, E1067D | C1108S); experiment: as above; conditions: both partners purified
T6 construct: also called PTP^PTPN21 C1108S E1067D; source: E. coli Rosetta (DE3), purified (as the wild type); not shown: His-sumo, N-terminal, cleaved; EGFP, C-terminal, kept
T6 sequence (looked up): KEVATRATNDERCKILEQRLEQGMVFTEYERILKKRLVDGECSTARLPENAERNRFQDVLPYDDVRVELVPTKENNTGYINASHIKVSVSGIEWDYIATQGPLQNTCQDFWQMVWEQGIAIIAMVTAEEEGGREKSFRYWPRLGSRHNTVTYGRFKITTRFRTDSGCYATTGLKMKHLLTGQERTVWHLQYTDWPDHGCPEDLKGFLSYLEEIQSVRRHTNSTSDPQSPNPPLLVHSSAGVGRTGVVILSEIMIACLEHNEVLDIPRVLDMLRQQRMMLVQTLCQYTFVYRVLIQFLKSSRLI

PTPN21 PTP R1114Q [8] = target: T7, PTPN21 PTP R1114Q (UniProt Q16825 872-1174, R1114Q); experiment: as above; conditions: both partners purified
T7 construct: also called PTP^PTPN21 R1114Q; source: E. coli Rosetta (DE3), purified (as the wild type)
T7 sequence (looked up): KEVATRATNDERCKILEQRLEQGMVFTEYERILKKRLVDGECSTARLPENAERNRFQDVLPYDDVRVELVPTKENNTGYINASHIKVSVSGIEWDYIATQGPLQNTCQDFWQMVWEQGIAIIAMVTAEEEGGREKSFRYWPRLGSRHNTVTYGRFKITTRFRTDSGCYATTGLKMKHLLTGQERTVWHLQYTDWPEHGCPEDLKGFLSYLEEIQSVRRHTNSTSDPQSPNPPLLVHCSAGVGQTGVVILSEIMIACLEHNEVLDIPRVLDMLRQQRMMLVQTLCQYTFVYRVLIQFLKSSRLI

PTPN21 PTP-EGFP [9] = target: T8, PTPN21 PTP-EGFP (UniProt Q16825 872-1174); experiment: MST; conditions: both partners purified
T8 construct: also called WT PTP-EGFP; source: E. coli Rosetta (DE3), purified (as the untagged domain); not shown: His-sumo, N-terminal, cleaved; EGFP, C-terminal, kept
T8 sequence (looked up): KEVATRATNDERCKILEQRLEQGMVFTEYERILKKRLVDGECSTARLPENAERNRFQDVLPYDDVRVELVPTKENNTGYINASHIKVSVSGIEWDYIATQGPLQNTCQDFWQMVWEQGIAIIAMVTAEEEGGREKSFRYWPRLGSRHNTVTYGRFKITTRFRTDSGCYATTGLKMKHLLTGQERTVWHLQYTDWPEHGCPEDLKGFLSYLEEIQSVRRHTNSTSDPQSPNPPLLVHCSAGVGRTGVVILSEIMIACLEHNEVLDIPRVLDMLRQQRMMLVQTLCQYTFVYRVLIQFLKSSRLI

mini PTPN21-EGFP [10] = target: T9, mini PTPN21-EGFP (UniProt Q16825 878-1174; Q16825 878-1174); experiment: MST; + Ins(1,3)P2
T9 chain: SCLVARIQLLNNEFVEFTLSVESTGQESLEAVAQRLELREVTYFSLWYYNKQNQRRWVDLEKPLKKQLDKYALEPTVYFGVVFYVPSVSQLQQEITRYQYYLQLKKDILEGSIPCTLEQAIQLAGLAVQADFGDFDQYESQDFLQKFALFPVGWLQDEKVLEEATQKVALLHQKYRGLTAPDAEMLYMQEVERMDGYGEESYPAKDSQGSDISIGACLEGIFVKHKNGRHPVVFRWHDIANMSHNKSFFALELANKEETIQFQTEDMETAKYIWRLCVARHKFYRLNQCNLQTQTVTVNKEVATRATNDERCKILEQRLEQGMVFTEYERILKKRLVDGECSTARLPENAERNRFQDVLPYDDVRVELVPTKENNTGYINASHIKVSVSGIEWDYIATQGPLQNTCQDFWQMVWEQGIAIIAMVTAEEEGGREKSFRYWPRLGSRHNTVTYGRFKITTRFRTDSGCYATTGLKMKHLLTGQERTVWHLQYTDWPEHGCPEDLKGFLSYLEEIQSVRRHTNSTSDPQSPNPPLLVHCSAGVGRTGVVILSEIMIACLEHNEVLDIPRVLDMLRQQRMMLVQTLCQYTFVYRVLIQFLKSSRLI

mini PTPN21-EGFP [11] = target: T9, mini PTPN21-EGFP; experiment: MST
PTPN21 PTP C1108S [12] = target: T4, PTPN21 PTP C1108S; experiment: crystal structure; mini PTPN21 C1108S: FERM and PTP joined on one chain by a flexible linker, hanging drop, 4°C; conditions: both partners purified
PTPN21 PTP-EGFP [13] = target: T8, PTPN21 PTP-EGFP; experiment: MST; PTP-EGFP fixed at 80 nM, FERM titrated from 300 μM to 0.09 nM; 20 mM Hepes pH 7.0, 150 mM NaCl, 0.3 mM TCEP, 1.5 mM BSA; mutants measured similarly; conditions: both partners purified

B1: PTPN21 PTP domain (PTP^PTPN21) (Homo sapiens; E1067D) (protein)
chain: KEVATRATNDERCKILEQRLEQGMVFTEYERILKKRLVDGECSTARLPENAERNRFQDVLPYDDVRVELVPTKENNTGYINASHIKVSVSGIEWDYIATQGPLQNTCQDFWQMVWEQGIAIIAMVTAEEEGGREKSFRYWPRLGSRHNTVTYGRFKITTRFRTDSGCYATTGLKMKHLLTGQERTVWHLQYTDWPDHGCPEDLKGFLSYLEEIQSVRRHTNSTSDPQSPNPPLLVHCSAGVGRTGVVILSEIMIACLEHNEVLDIPRVLDMLRQQRMMLVQTLCQYTFVYRVLIQFLKSSRLI
notes: PTP (phosphatase) domain, residues 872 to 1174; E. coli Rosetta (DE3), His-sumo tag removed
Binder B1 has a Km [1] of 250.93 ± 15.69 µM and a kcat [1] of 38.32 ± 4.66 s⁻¹.

B2: Src pY530 peptide (peptide)
peptide: STEPQ[pY]QPGENL
notes: also called Src pY530 synthetic peptide; Peptide Src pY530; source: synthetic peptide (ChinaPeptides Co. Ltd.)
In the case of B2, the Kd (PTPN21 PTP C1108S-EGFP [2]) is reported as 2930 nM, the Kd [3] is reported as 5610 nM and the Kd (PTPN21 PTP R1114Q [4]) is reported as 6230 nM. B2: binds (PTPN21 PTP C1108S [5]); binds (PTPN21 PTP C1108S-EGFP [6]); binds [7]. B2: binds (PTPN21 PTP R1114Q [8]).

B3: HPV18 E7 CR3 domain (domain or fragment)
chain: AEPQRHTMLCMCCKCEARIKLVVESSADDLRAFQQLFLNTLSFVCPWCASQQ
notes: source: E. coli Rosetta (DE3), purified (as the PTPN21 domains); not shown: His-sumo, N-terminal, cleaved
B3 gave a Kd (PTPN21 PTP-EGFP [9]) of about 2.8 nM and a Kd (mini PTPN21-EGFP [10]) of 40.3 nM.

B4: HPV18 E7 protein, full length (natural protein)
chain: MHGPKATLQDIVLHLEPQNEIPVDLLCHEQLSDSEEENDEIDGVNHQHLPARRAEPQRHTMLCMCCKCEARIKLVVESSADDLRAFQQLFLNTLSFVCPWCASQQ
For B4, the Kd (mini PTPN21-EGFP [11]) was 215 nM and the Kd (mini PTPN21-EGFP [10]) was 352 nM.

B5: PTPN21 FERM domain (residues 21 to 319) (domain or fragment, UniProt Q16825 21-319, looked up)
chain: SCLVARIQLLNNEFVEFTLSVESTGQESLEAVAQRLELREVTYFSLWYYNKQNQRRWVDLEKPLKKQLDKYALEPTVYFGVVFYVPSVSQLQQEITRYQYYLQLKKDILEGSIPCTLEQAIQLAGLAVQADFGDFDQYESQDFLQKFALFPVGWLQDEKVLEEATQKVALLHQKYRGLTAPDAEMLYMQEVERMDGYGEESYPAKDSQGSDISIGACLEGIFVKHKNGRHPVVFRWHDIANMSHNKSFFALELANKEETIQFQTEDMETAKYIWRLCVARHKFYRLNQCNLQTQTVTVN
notes: also called FERM^PTPN21; source: E. coli Rosetta (DE3), purified (Ni-NTA, source Q, Superdex 200); not shown: His-sumo, N-terminal, cleaved
With B5 the binding result (PTPN21 PTP C1108S [12]) was “binds” and the Kd (PTPN21 PTP-EGFP [13]) was about 7600 nM.
